T1: non-modified Hepcidin-25 (human, not fully specified)
T1 peptide: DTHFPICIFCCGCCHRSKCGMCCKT


Experiments:
non-modified Hepcidin-25 [1] = biological target: T1, non-modified Hepcidin-25; experiment: cell-based or functional assay
non-modified Hepcidin-25 [2] = biological target: T1, non-modified Hepcidin-25; experiment: competition ELISA, non-modified Hepcidin-25 in solution (25 pM)

| Binder | In Vitro Neutralization Activity Assay, IC50 [nM] (cell-based hepcidin-induced internalization of ferroportin-GFP) (non-modified Hepcidin-25 [1]) | IC50 (non-modified Hepcidin-25 [2]) [nM] |
| --- | --- | --- |
| hepcidin-specific lipocalin mutein of SEQ ID NO: 10 (designed binder, Mutein of human NGAL (lipocalin 2); also called hNGAL mutein) QDSTSDLIPAPPLSKVPLQQNFQDNQFHGKWYVVGLAGNEILREDKDPMKMWATIYELKEDRSYNVTIVMFLAKKCEYLFQTFVPGSQPGEFTLGDIKSSPGRTSGLVRVVSTNYNQHAMVFFKVVWQNREVFWITLYGRTKELTPELKENFIRFSKSLGLPENHIVFPVPIDQCIDGF | 31 | 0.1 |
| hepcidin-specific lipocalin mutein of SEQ ID NO: 8 (designed binder, Mutein of human NGAL (lipocalin 2); also called hNGAL mutein) QDSTSDLIPAPPLSKVPLQQNFQDNQFHGKWYVVGLAGNEVLREDKDPMKMWATIYELKEDKSYNVTIVMPLAEKCEYLFQTFVPGSQPGEFTLGGIKSGPGRTSGLVRVVSTNYNQHAMVFFKVVWQNREVFWVTLYGRTKELTSELKENFIRFSKSLGLPENHIVFPVPIDQCIDG | 25 | 0.18 |
